Source: patent publication WO2018083080A2 (dated 2018)

Tests used:
[1] = biological target: T1, recombinant human CFP HIS-tagged (human, UniProt P27918 28-469); assay: flow cytometry; CFP-HIS on cells
T1 construct: Secreted from CHO cells, purified on Ni-NTA and by size exclusion; also called huCFP-HIS; HuCFP-HIS; not shown: HIS tag inserted through the reverse primer (C-terminal)

[2] = biological target: T1, recombinant human CFP HIS-tagged; assay: flow cytometry; CFP-HIS on enriched mouse NK cells

T1 sequence (P27918 28-469): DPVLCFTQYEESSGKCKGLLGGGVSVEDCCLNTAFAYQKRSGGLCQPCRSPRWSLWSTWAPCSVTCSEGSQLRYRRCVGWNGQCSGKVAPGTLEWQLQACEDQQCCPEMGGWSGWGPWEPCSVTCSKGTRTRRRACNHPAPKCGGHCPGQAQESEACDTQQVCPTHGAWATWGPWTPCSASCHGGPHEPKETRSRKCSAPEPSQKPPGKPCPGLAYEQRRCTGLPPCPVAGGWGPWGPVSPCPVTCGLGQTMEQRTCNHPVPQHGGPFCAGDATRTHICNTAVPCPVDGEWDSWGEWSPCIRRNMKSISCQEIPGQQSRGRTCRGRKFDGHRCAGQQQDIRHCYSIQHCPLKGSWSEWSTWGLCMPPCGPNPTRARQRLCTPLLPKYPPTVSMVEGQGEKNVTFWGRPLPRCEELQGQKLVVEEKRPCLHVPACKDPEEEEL

binding result [1] | binding result [2] | Binder
no binding (tested: 10ug/ml) | – | NKp30 on DOMsp30 cells (receptor, UniProt O14931 19-135, looked up, also called DOMsP cells expressing NKp30) LWVSQPPEIRTLEGSSAFLPCSFNASQGRLAIGSVTWFRDEVVPGKEVRNGTPEFRGRLAPLASSRFLHDHQAELHIRDVRGHDASIYVCRVEVLGLGVGTGNGTRLVVEKEHPQLG
– | binds | mouse NKp46 on Ncr1 WT/WT enriched mouse NK cells (receptor, UniProt Q8C567 17-325, looked up, whole, on cells; also called Ncr1 WT/WT NK cells) QRINTEKETLPKPIIWAKPSIMVTNGNSVNIWCQGAQSASEYQLYFEGSFFALERPKPSRSMNKVRFFISQMTSHTAGIYTCFYQSGELWSKSSNPLKLVVTGLYDTPNLWVYPRPEVTLGENVTFFCQLKTATSKFFLLKERGSNHIQNKYGNIQAEFPMGPVTRAHRGTYRCFGSYNDYAWSFPSEPVTLLITGGVENSSLAPTDPTSSLDYWEFDLSTNESGLQKDSAFWDHTTQNLIRIGLACIILITLVWLLTEDWLSKRKDHEEANRLTNWECRRRWRMQHYFEEEQRNAISMMELKATPGAL
